Strand notation (5' to 3'): a small letter for the sugar, then the base; units joined by * are phosphorothioate-linked, units joined directly phosphodiester-linked; [ ] holds rarer units or linkages, { } end groups; capitals alone tell only the bases. m = 2'-O-methyl; r = 2'-OH (RNA)
B1: G000502: TTR Cyno specific sgRNA modified sequence, SEQ ID No. 114; guide sequence of CR000689; cross homologous between mouse and cyno (nucleic acid)
guide: mA*mC*mA*rCrArArArUrArCrCrArGrUrCrCrArGrCrGrGrUrUrUrUrArGrAmGmCmUmAmGmAmAmAmUmAmGmCrArArGrUrUrArArArArUrArArGrGrCrUrArGrUrCrCrGrUrUrArUrCrAmAmCmUmUmGmAmAmAmAmAmGmUmGmGmCmAmCmCmGmAmGmUmCmGmGmUmGmCmU*mU*mU*mU
B2: G000484: TTR sgRNA modified sequence, Human, SEQ ID No. 91; guide sequence of CR003367 (nucleic acid)
guide: mA*mG*mA*rCrArCrCrArArArUrCrUrUrArCrUrGrGrArGrUrUrUrUrArGrAmGmCmUmAmGmAmAmAmUmAmGmCrArArGrUrUrArArArArUrArArGrGrCrUrArGrUrCrCrGrUrUrArUrCrAmAmCmUmUmGmAmAmAmAmAmGmUmGmGmCmAmCmCmGmAmGmUmCmGmGmUmGmCmU*mU*mU*mU
B3: G000490: TTR sgRNA modified sequence, Human, SEQ ID No. 97; guide sequence of CR003366 (nucleic acid)
guide: mA*mA*mA*rUrArGrArCrArCrCrArArArUrCrUrUrArCrGrUrUrUrUrArGrAmGmCmUmAmGmAmAmAmUmAmGmCrArArGrUrUrArArArArUrArArGrGrCrUrArGrUrCrCrGrUrUrArUrCrAmAmCmUmUmGmAmAmAmAmAmGmUmGmGmCmAmCmCmGmAmGmUmCmGmGmUmGmCmU*mU*mU*mU
B4: G000494: TTR sgRNA modified sequence, Human, SEQ ID No. 101; guide sequence of CR003360 (nucleic acid)
guide: mG*mU*mG*rArGrUrCrUrGrGrArGrArGrCrUrGrCrArUrGrUrUrUrUrArGrAmGmCmUmAmGmAmAmAmUmAmGmCrArArGrUrUrArArArArUrArArGrGrCrUrArGrUrCrCrGrUrUrArUrCrAmAmCmUmUmGmAmAmAmAmAmGmUmGmGmCmAmCmCmGmAmGmUmCmGmGmUmGmCmU*mU*mU*mU
B5: G000483: TTR sgRNA modified sequence, Human, SEQ ID No. 90; guide sequence of CR005298 (nucleic acid)
guide: mU*mC*mC*rArCrUrCrArUrUrCrUrUrGrGrCrArGrGrArGrUrUrUrUrArGrAmGmCmUmAmGmAmAmAmUmAmGmCrArArGrUrUrArArArArUrArArGrGrCrUrArGrUrCrCrGrUrUrArUrCrAmAmCmUmUmGmAmAmAmAmAmGmUmGmGmCmAmCmCmGmAmGmUmCmGmGmUmGmCmU*mU*mU*mU
B6: G000480: TTR sgRNA modified sequence, Human, SEQ ID No. 87; guide sequence of CR003353 (nucleic acid)
guide: mA*mA*mA*rGrGrCrUrGrCrUrGrArUrGrArCrArCrCrUrGrUrUrUrUrArGrAmGmCmUmAmGmAmAmAmUmAmGmCrArArGrUrUrArArArArUrArArGrGrCrUrArGrUrCrCrGrUrUrArUrCrAmAmCmUmUmGmAmAmAmAmAmGmUmGmGmCmAmCmCmGmAmGmUmCmGmGmUmGmCmU*mU*mU*mU
B7: G000482: TTR sgRNA modified sequence, Human, SEQ ID No. 89; guide sequence of CR003365 (nucleic acid)
guide: mU*mG*mU*rArGrArArGrGrGrArUrArUrArCrArArArGrGrUrUrUrUrArGrAmGmCmUmAmGmAmAmAmUmAmGmCrArArGrUrUrArArArArUrArArGrGrCrUrArGrUrCrCrGrUrUrArUrCrAmAmCmUmUmGmAmAmAmAmAmGmUmGmGmCmAmCmCmGmAmGmUmCmGmGmUmGmCmU*mU*mU*mU
B8: G000499: TTR sgRNA modified sequence, Human, SEQ ID No. 106; guide sequence of CR005303 (nucleic acid)
guide: mU*mG*mA*rArUrCrCrArArGrUrGrUrCrCrUrCrUrGrArGrUrUrUrUrArGrAmGmCmUmAmGmAmAmAmUmAmGmCrArArGrUrUrArArArArUrArArGrGrCrUrArGrUrCrCrGrUrUrArUrCrAmAmCmUmUmGmAmAmAmAmAmGmUmGmGmCmAmCmCmGmAmGmUmCmGmGmUmGmCmU*mU*mU*mU
B9: G000481: TTR sgRNA modified sequence, Human, SEQ ID No. 88; guide sequence of CR003345 (nucleic acid)
guide: mU*mC*mU*rArGrArArCrUrUrUrGrArCrCrArUrCrArGrGrUrUrUrUrArGrAmGmCmUmAmGmAmAmAmUmAmGmCrArArGrUrUrArArArArUrArArGrGrCrUrArGrUrCrCrGrUrUrArUrCrAmAmCmUmUmGmAmAmAmAmAmGmUmGmGmCmAmCmCmGmAmGmUmCmGmGmUmGmCmU*mU*mU*mU
B10: G000489: TTR sgRNA modified sequence, Human, SEQ ID No. 96; guide sequence of CR003344 (nucleic acid)
guide: mU*mU*mU*rGrArCrCrArUrCrArGrArGrGrArCrArCrUrGrUrUrUrUrArGrAmGmCmUmAmGmAmAmAmUmAmGmCrArArGrUrUrArArArArUrArArGrGrCrUrArGrUrCrCrGrUrUrArUrCrAmAmCmUmUmGmAmAmAmAmAmGmUmGmGmCmAmCmCmGmAmGmUmCmGmGmUmGmCmU*mU*mU*mU
B11: G000485: TTR sgRNA modified sequence, Human, SEQ ID No. 92; guide sequence of CR003336 (nucleic acid)
guide: mC*mC*mU*rCrCrUrCrUrGrCrCrUrUrGrCrUrGrGrArCrGrUrUrUrUrArGrAmGmCmUmAmGmAmAmAmUmAmGmCrArArGrUrUrArArArArUrArArGrGrCrUrArGrUrCrCrGrUrUrArUrCrAmAmCmUmUmGmAmAmAmAmAmGmUmGmGmCmAmCmCmGmAmGmUmCmGmGmUmGmCmU*mU*mU*mU
B12: G000488: TTR sgRNA modified sequence, Human, SEQ ID No. 95; guide sequence of CR003346 (nucleic acid)
guide: mA*mA*mA*rGrUrUrCrUrArGrArUrGrCrUrGrUrCrCrGrGrUrUrUrUrArGrAmGmCmUmAmGmAmAmAmUmAmGmCrArArGrUrUrArArArArUrArArGrGrCrUrArGrUrCrCrGrUrUrArUrCrAmAmCmUmUmGmAmAmAmAmAmGmUmGmGmCmAmCmCmGmAmGmUmCmGmGmUmGmCmU*mU*mU*mU
B13: G000486: TTR sgRNA modified sequence, Human, SEQ ID No. 93; guide sequence of CR003339 (nucleic acid)
guide: mA*mC*mA*rCrArArArUrArCrCrArGrUrCrCrArGrCrArGrUrUrUrUrArGrAmGmCmUmAmGmAmAmAmUmAmGmCrArArGrUrUrArArArArUrArArGrGrCrUrArGrUrCrCrGrUrUrArUrCrAmAmCmUmUmGmAmAmAmAmAmGmUmGmGmCmAmCmCmGmAmGmUmCmGmGmUmGmCmU*mU*mU*mU
B14: G000496: TTR sgRNA modified sequence, Human, SEQ ID No. 103; guide sequence of CR005304 (nucleic acid)
guide: mG*mG*mC*rCrGrUrGrCrArUrGrUrGrUrUrCrArGrArArGrUrUrUrUrArGrAmGmCmUmAmGmAmAmAmUmAmGmCrArArGrUrUrArArArArUrArArGrGrCrUrArGrUrCrCrGrUrUrArUrCrAmAmCmUmUmGmAmAmAmAmAmGmUmGmGmCmAmCmCmGmAmGmUmCmGmGmUmGmCmU*mU*mU*mU
B15: G000487: TTR sgRNA modified sequence, Human, SEQ ID No. 94; guide sequence of CR003357 (nucleic acid)
guide: mU*mU*mC*rUrUrUrGrGrCrArArCrUrUrArCrCrCrArGrGrUrUrUrUrArGrAmGmCmUmAmGmAmAmAmUmAmGmCrArArGrUrUrArArArArUrArArGrGrCrUrArGrUrCrCrGrUrUrArUrCrAmAmCmUmUmGmAmAmAmAmAmGmUmGmGmCmAmCmCmGmAmGmUmCmGmGmUmGmCmU*mU*mU*mU

The molecules below were run on TTR (assay: TTR editing in primary cyno hepatocytes treated with LNP formulated Spy Cas9 mRNA (SEQ ID NO: 2) and sgRNAs (Tables 17, 18)). Conditions: LNP formulated Spy Cas9 mRNA (SEQ ID NO: 2) and cyno matched sgRNAs, 72 hours post treatment.
Type: cell-based, cynomolgus monkey
Protocol: Primary liver hepatocytes. Primary human liver hepatocytes (PHH) and primary cynomolgus liver hepatocytes (PCH) (Gibco) were cultured per the manufacturer's protocol (Invitrogen, protocol 11.28.2012). In brief, the cells were thawed and resuspended in hepatocyte thawing medium with supplements (Gibco, Cat. CM7000) followed by centrifugation at 100 g for 10 minutes for human and 80 g for 4 minutes for cyno. The supernatant was discarded and the pelleted cells resuspended in hepatocyte plating medium plus supplement pack (Invitrogen, Cat. A1217601 and CM3000). Cells were counted and plated on Bio-coat collagen I coated 96-well plates (ThermoFisher, Cat. 877272) at a density of 33,000 cells/well for human or 60,000 cells/well for cyno (or 65,000 cells/well when assaying effects on TTR protein, described further below). Plated cells were allowed to settle and adhere for 6 or 24 hours in a tissue culture incubator at 37° C. and 5% CO2 atmosphere. After incubation cells were checked for monolayer formation and media was replaced with hepatocyte culture medium with serum-free supplement pack (Invitrogen, Cat. A1217601 and CM4000).
In general, the lipid nanoparticle components were dissolved in 100% ethanol with the lipid component of various molar ratios. The RNA cargos were dissolved in 25 mM citrate, 100 mM NaCl, pH 5.0, resulting in a concentration of RNA cargo of approximately 0.45 mg/mL. The LNPs were formulated with a lipid amine to RNA phosphate (N:P) molar ratio of about 4.5 or about 6, with the ratio of mRNA to gRNA at 1:1 by weight.
The LNPs were formed by microfluidic mixing of the lipid and RNA solutions using a Precision Nanosystems NanoAssemblr™ Benchtop Instrument, according to the manufacturer's protocol. A 2:1 ratio of aqueous to organic solvent was maintained during mixing using differential flow rates. After mixing, the LNPs were collected, diluted in water (approximately 1:1 v/v), held for 1 hour at room temperature, and further diluted with water (approximately 1:1 v/v) before final buffer exchange. The final buffer exchange into 50 mM Tris, 45 mM NaCl, 5% (w/v) sucrose, pH 7.5 (TSS) was completed with PD-10 desalting columns (GE). If required, formulations were concentrated by centrifugation with Amicon 100 kDa centrifugal filters (Millipore). The resulting mixture was then filtered using a 0.2 μm sterile filter. The final LNP was stored at −80° C. until further use.
To quantitatively determine the efficiency of editing at the target location in the genome, sequencing was utilized to identify the presence of insertions and deletions introduced by gene editing.
Primers were designed around the target site within the gene of interest (e.g. TTR), and the genomic area of interest was amplified.
Additional PCR was performed per the manufacturer's protocols (Illumina) to add chemistry for sequencing. The amplicons were sequenced on an Illumina MiSeq instrument. The reads were aligned to a reference genome (e.g., the human reference genome (hg38), the cynomologus reference genome (mf5), the rat reference genome (rn6), or the mouse reference genome (mm10)) after eliminating those having low quality scores. The resulting files containing the reads were mapped to the reference genome (BAM files), where reads that overlapped the target region of interest were selected and the number of wild type reads versus the number of reads which contain an insertion, substitution, or deletion was calculated.
The editing percentage (e.g., the “editing efficiency” or “percent editing” or “indel frequency”) is defined as the total number of sequence reads with insertions/deletions (“indels”) or substitutions over the total number of sequence reads, including wild type.
Lipid nanoparticle formulations of modified sgRNAs targeting human TTR and the cyno matched sgRNA sequences were tested on primary human hepatocytes and primary cyno hepatocytes in a dose response curve. Primary human and cyno hepatocytes were plated as described in Example 1. […]

B1 was tested, and the “12.5 ng mRNA, 3.9 nM sgRNA % Edit” value was 80.70%.

Same assay, conditions: Table 17, LNP formulated Spy Cas9 mRNA (SEQ ID NO: 2) and sgRNA, 12.5 ng mRNA, 3.9 nM sgRNA, 72 hours

Point of comparison: B10, “12.5 ng mRNA, 3.9 nM sgRNA Avg % Edit” value 31.87%. Against it:
- B2 — lower, 0.10%
- B3 — lower, 15.23%
- B4 — lower, 14.30%
- B5 — lower, 0.73%
- B6 — lower, 0.73%
- B7 — lower, 26.13%
- B8 — lower, 14.63%
- B9 — higher, 49.20%
- B11 — lower, 1.43%

The molecules below were run on off-target integration sites (assay: Off-target oligo insertion based assay in primary human hepatocytes (Table 30)). Conditions: TTR sgRNAs in PHH, 100 ng Cas9 mRNA, 25 nM sgRNA, 12.5 nM donor oligo.
Type: cell-based
Protocol: Off-target analysis of sgRNAs targeting TTR was performed in primary human hepatocytes (PHH) as described in Example 5, with the following modifications. PHH were plated at a density of 33,000 cells per well on collagen-coated 96-well plates as described in Example 1. Twenty-four hours post plating, cells were washed with media and transfected using Lipofectamine RNAiMAX (ThermoFisher, Cat. 13778150) as described in Example 1. Cells were transfected with a lipoplex containing 100 ng Cas9 mRNA, immediately followed by the addition of another lipoplex containing 25 nM of the sgRNA and 12.5 nM of the donor oligo (0.3 μL/well). Cells were lysed 48 hours post-transfection and gDNA was extracted and analyzed as further described in Example 5. The data is graphically represented in FIG. 20.
Fewer sites were detected in PHH for every guide tested as compared to the HekCas9 cell line, with no unique sites detected in PHH alone.

Point of comparison: B4, “# Sites in PHH” value 0. Against it:
- B12 — the same, 0
- B2 — the same, 0
- B13 — the same, 0
- B3 — the same, 0
- B14 — the same, 0
- B5 — the same, 0
- B6 — higher, 2
- B7 — higher, 2
- B8 — higher, 1
- B9 — the same, 0
- B10 — higher, 2
- B11 — higher, 3
- B15 — the same, 0
